Measured values reported in patent US11859229B2, “Polyvinyl alcohol-degrading enzyme and process for producing the same” (Hayashibara Co., Ltd., priority 2017, dated 2024).

Tests used:
[1] = Assay for PVA-oxidizing activity (hydrogen peroxide formation, titanium reagent, A410); assay type: biochemical
Description: As shown in the above (1), the PVA-degrading enzyme of the present invention has an PVA-oxidizing activity, i.e., an activity of catalyzing the reaction of oxidizing PVA as substrate and forming hydrogen peroxide. For example, the PVA-oxidizing activity can be measured by the following method.
To 0.5 mL of a substrate solution prepared by dissolving PVA (Reagent grade polyvinyl alcohol, polymerization degree: 2,000, Nacalai Tesque Inc., Kyoto, Japan) into 100 mM sodium phosphate buffer (pH 7.0) to give a concentration of 2% (w/v), 15 µL of 2% (w/v) of sodium azide solution was added, and then 0.5 mL of an enzyme solution is further added and reacted with shaking at 27° C. for 60 min. After the 60 min-reaction, the reaction was stopped by mixing 0.32 mL of the reaction mixture to 0.8 mL of a titanium reagent, and the yellow color, produced by reacting hydrogen peroxide formed by the enzyme reaction and the titanium reagent, was measured by measuring the absorbance at 410 nm (A410) as an index. Separately, the enzyme solution was added to the substrate solution, and the resulting mixture is immediately mixed with the titanium reagent. The resulting mixture was similarly measured its color and the value was used as the value at the reaction zero minutes. Then, the amount of the formed hydrogen peroxide is determined and the PVA-oxidizing activity is calculated based on the following formula. It is known that the absorbance at 410 nm (A410) increases by “1” when 3.65 […]mole/mL of hydrogen peroxide is formed. Therefore, in the following Formula 1, the coefficient of “3.65” has been multiplied. One unit of the PVA-oxidizing activity is defined as the amount of enzyme that forms 1 […]mole of hydrogen peroxide per min under the above conditions. Titanium reagent is prepared by diluting 5% titanium sulfate (IV) solution, commercialized by Nacalai Tesque Inc., Kyoto, Japan, 25-fold with 10% (w/w) sulfuric acid.

[2] = Thermal stability and pH stability (residual PVA-oxidizing activity); assay type: biochemical; settings: 10 mM phosphate buffer, pH 7.0, 60 min
Description: To 0.5 mL of a substrate solution prepared by dissolving PVA (Reagent grade polyvinyl alcohol, polymerization degree: 2,000, Nacalai Tesque Inc., Kyoto, Japan) into 100 mM sodium phosphate buffer (pH 7.0) to give a concentration of 2% (w/v), 15 µL of 2% (w/v) of sodium azide solution was added, and then 0.5 mL of an enzyme solution is further added and reacted with shaking at 27° C. for 60 min. After the 60 min-reaction, the reaction was stopped by mixing 0.32 mL of the reaction mixture to 0.8 mL of a titanium reagent, and the yellow color, produced by reacting hydrogen peroxide formed by the enzyme reaction and the titanium reagent, was measured by measuring the absorbance at 410 nm (A410) as an index. Separately, the enzyme solution was added to the substrate solution, and the resulting mixture is immediately mixed with the titanium reagent. The resulting mixture was similarly measured its color and the value was used as the value at the reaction zero minutes. Then, the amount of the formed hydrogen peroxide is determined and the PVA-oxidizing activity is calculated based on the following formula. It is known that the absorbance at 410 nm (A410) increases by “1” when 3.65 […]mole/mL of hydrogen peroxide is formed. […]
In the two purified preparations of the PVA-degrading enzyme, PVA-A was used for investigating thermal stability and pH stability using PVA-oxidizing activity as an index according to the assay method. Thermal stability was determined by the steps of incubating the enzyme solution (in 10 mM phosphate buffer, pH 7.0) at various temperature for 60 min, cooling in water, and then measuring the residual enzyme activity. pH Stability was determined by the steps of incubating the enzyme solution in 100 mM buffer with different pH at 4° C. for 24 hours, adjusting pH to 7.0, and then measuring the residual enzyme activity. […] In FIG. 6, symbols, “●”, “▪”, “▴” and “♦”, mean values measured by using acetate buffer, phosphate buffer, glycine-NaOH buffer, and potassium chloride-NaOH buffer, respectively, for pH control.

B1: PVA-A: purified PVA-degrading hybrid enzyme from Pseudomonas sp. VT1B strain, amino acid sequence of SEQ ID NO: 2 (protein, listed as Pseudomonas sp.)
chain: AENWPMFGKNYENTRATSDTQISTANISTLNVVRRTTDGGITGTPTVVDGVAYYSDFSGYVKAVRVSDGVVLWRVRPQTTMLSPSPFVTADTVYVAGNNSYVYALNRANGAVRWTTQIETSPNSRISSSPIVVGNILIIGTGSYQVFLPATPMFRGRVAFLNATTGAILPYSTNMCPSASCGGGISVWSTAAIDESTRTGYIGTGQAYRDPAGPYSDALVAFNIDTGAIRWARQFLANDVYQLGGTLRYDYDVGAAPNLFVANGQRMVGVGGKDGTYRAFNRDTGAPIWNTPVGRGSAIGGVMQSTAYGDGRIYVTSNTSTIGSGRNDPVPATAEASALDAATGAPVWIRQLDAGGFGGVAYANGLMYASTWDGRLRVFNAANGNIVREVQVSPSRGAYVPAPTDGFPNGSAGGPVVYGNRVLMGYGWTWVLNINGGLTTMEATVGGGASQTVTLASSSDTYVQSGTPTTNYAYDVNLLARLADAEGLTRASFLQFPLTAVPAGTITSARLRLYGRHDAPTGTGQSVSVWPGTKTTTWSGPNVTYNNSSTETGVDFYATSSIATATVGITPQYYEWNVTDYVASRRSLGHATFGVAVNSAHQYRVTLNSADNTANRPELVVTVSGGTGSQLPGSCPSGFTARAGVNQGFMHNGVARGFVLNVPANVSTPRPVFVSLTGSVESTNENLGARGGAGALNNDGFLVIGPVRRCAGQDPNGAGTSVNGGTCNQAGTGGWNWNPWNEGRVFAAAGDPWKTAEGPDSQFLEAVVRCVAASYPVDSTRMYLGGISSGATMTHRALLFNSDFWAGGLPLSGEWYVSQDNGTAYPGADEFAARRQAVINNPTKIFQGRVGPLPLPATQSPMIVISMWGGANDIWYCGSTLCADYRPSTQAASNYFSALPNVVHVACSSSHGHQWPTQNRAAFNTWAATTLASHPKGTPASSFVLPPPPAGYSCRVGRYTDHYSGT
With B1 the Specific activity ([1]; PVA-oxidizing activity per mg protein at each purification step) was 3.2 U/mg, the “Total Activity (PVA-oxidizing activity)” value ([1]; at each purification step, from 4 L culture supernatant) was 5.4 U and the “Thermal stability of PVA-oxidizing activity” value [2] was “up to 45 °C”.
